Data on ten molecules can be found in patent US20210079089A1 (SURROZEN OPERATING, published 2021).

One may read the Kd as the equilibrium constant for the complex coming apart.

B1: 009S-D04 (VHH)
VHH: QVKLEESGGGLVQPGGSLRLSCETSATIVSIYRINWYRQAPGKQREWVAGITSSGRTIYADSVKGRFTISRDNAKNTVYLQMNNLKPEDTAVYYCNAASTVTAWPYYGPDYWGKGTLVTVSS
B2: 009S-A04 (VHH)
VHH: AVQLVESGGGLVQAGGSLRLSCAASGRTLSAYDMGWFRQAPGKERELVGGIRWSGGTTLYPDSVKGRFTISRDNAKNTVYLQMNSLKPEDSAVYYCYARTVIGGFGAFRAHWGQGTQVTVSS
B3: 009S-D03 (VHH)
VHH: DVQLVESGGGLVQPGGSLRLSCAAPGSIFSDGAMGWYRQAPGKQRELVAVISGGRTGYADFVKGRFTISRDNGKNTVNLQMNRLEPEDTAVYFCNTYPFPIYKKGYPFWGQGTQVTVSS
B4: 009S-G02 (VHH)
VHH: AVQLVESGGGLVQAGGSLRLSCGVSGSIFSIYAMGWYRQAPGKERELVAVITSGGKTVYADSVKGRFTITEDAAKNTVYLQMNSLKAEDTAVYYCYADSRSSWYDEYLEHWGRGTLVTVSS
B5: 009S-F03 (VHH)
VHH: DVQLVESGGGLVQAGGSLRLSCAASGRTFSSYAMSWFRQAPGKEREFVAVIGRSGGIKYYADSVKGRFTISRDNTINTVYLQMNNLTPEDTAIYYCATRRPFNSYNTEQSYDSWGRGTLVTVSS
B6: 013S-C05 (HC SEQ ID NO 17) (VHH)
VHH: EVQLVESGGGLVQPGGSLRLSCAVSRNIFPIDDMSWYRQAPGKQRELVATVTSGGRINYADSVKGRFTISRDGARRTIDLQMNNLKPEDTAVYYCNVDRTLYGKYKEYWGQGTLVTVSS
B7: 009S-H04 (VHH)
VHH: EVQLVESGGGLVQAGGSLRLACAGSGRIFAIYDMAWYRQAPGNQRELVATIRPVVSETTYADAVKGRFTISRSNAMKTVYLQMNSLKSEDTAIYYCNAKRPWGTRDEYWGQGTLVTVSS
B8: 013S-H04 (HC SEQ ID NO 16) (VHH)
VHH: AVQLVDSGGGLVQAGGSLRLSCAVSGRTFSMYDMGWFRQAPGKEREFVASIRWSSGNTWYADSMKGRFTISRDNAKNTVYLQMNSLKPEDTAVYYCYANIYYTRRAPEEYWGQGTLVTVSS
B9: 013S-D05 (HC SEQ ID NO 18) (VHH)
VHH: QVKLEESGGGLVQAGGSLRLSCAASGRIFSIYDMGWFRQAPGKEREFVSGIRWSGGTSYADSVKGRFTISKDNAKNTIYLQMNNLKAEDTAVYYCGSRGYWGQGTLVTVSS
B10: VHH36 (013S-D05) (VHH)
VHH: B9 VHH
modifications: Gln1 modified as pyroglutamate
notes: construct of the crystal structure

The target of the first assay is T1, LRP6E3E4_O75581_631-1246 (Homo sapiens (Human), UniProt O75581 631-1246, biotinylated in the BLI/SPR assays (C-terminal biotin acceptor peptide)).
T1 construct: The entry holds residues 631-1246 of UniProt O75581 followed by a biotin acceptor peptide and eight His; For crystals the complex was treated with carboxypeptidase A and B
T1 sequence: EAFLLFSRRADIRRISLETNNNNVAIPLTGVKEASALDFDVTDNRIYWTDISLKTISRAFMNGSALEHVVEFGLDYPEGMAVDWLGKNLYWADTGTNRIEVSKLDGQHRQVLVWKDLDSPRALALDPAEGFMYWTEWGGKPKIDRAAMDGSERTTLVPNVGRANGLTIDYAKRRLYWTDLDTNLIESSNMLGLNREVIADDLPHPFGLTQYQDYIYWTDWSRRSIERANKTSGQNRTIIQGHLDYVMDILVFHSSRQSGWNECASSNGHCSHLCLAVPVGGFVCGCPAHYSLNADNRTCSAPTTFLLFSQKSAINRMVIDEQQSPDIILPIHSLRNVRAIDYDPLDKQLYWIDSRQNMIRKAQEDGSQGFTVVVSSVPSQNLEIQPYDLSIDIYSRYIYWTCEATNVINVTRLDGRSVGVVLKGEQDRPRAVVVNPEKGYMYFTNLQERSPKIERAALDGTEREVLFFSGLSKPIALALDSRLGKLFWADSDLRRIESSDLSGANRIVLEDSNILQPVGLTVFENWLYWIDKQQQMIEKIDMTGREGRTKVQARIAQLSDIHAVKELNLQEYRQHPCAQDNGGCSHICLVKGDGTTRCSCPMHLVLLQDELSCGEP
In words: Octet BLI or BIAcore SPR; Table 1B (heavy-chain-only clones). For orientation: In BLI a coated tip is dipped into the sample, and binding shifts an interference pattern.
Take B1: the Kd is above 0.5 µM.

A further assay has as its target T1, LRP6E3E4_O75581_631-1246. In words: Octet BLI. As to the method: (§1) Binding kinetics of antibody fragments to LRP5 extracellular domain (LRP5 ECD) and/or LRP6 extracellular domain (LRP6 ECD) protein targets was determined by bio-layer interferometry (BLI) using Octet Red 96 (PALL ForteBio, Fremont, Calif.) instruments at 30° C., 1000 rpm with streptavidin (SA) biosensors. C-terminal biotinylated LRP ECD recombinant protein was diluted to 20 nM in the running buffer (PBS, 0.05% Tween-20, 0.5% BSA, pH 7.2) and captured to the SA biosensor until coupling length reached 0.2 nm. Following capture of the LRP5 or LRP6, the SA biosensor with captured biotinylated-LRP5 or biotinylated LRP6 was dipped into wells containing the relevant antibody fragment at […] (0, 1.37, 4.12, 12.4, 37, 111.1, 333.3, 1000 nM) in running buffer, plus a well with only running buffer as a reference channel. KD was determined by global fitting, 1:1 binding model according to manufacturer recommended settings.
For the molecule B2, the binding result is on record as “no binding”.
Still for that read-out and setting: then B3, with “no binding”.
On to B4, for which the binding result was “no binding”.
Same read-out and setting: then B5, with “no binding”.

Another assay has as its target T2, LRP6e1e2 (UniProt O75581 20-630, limits assumed, C-terminally biotinylated).
T2 construct: domain: E1E2; also called LRP6 E1E2 domains
T2 sequence (looked up): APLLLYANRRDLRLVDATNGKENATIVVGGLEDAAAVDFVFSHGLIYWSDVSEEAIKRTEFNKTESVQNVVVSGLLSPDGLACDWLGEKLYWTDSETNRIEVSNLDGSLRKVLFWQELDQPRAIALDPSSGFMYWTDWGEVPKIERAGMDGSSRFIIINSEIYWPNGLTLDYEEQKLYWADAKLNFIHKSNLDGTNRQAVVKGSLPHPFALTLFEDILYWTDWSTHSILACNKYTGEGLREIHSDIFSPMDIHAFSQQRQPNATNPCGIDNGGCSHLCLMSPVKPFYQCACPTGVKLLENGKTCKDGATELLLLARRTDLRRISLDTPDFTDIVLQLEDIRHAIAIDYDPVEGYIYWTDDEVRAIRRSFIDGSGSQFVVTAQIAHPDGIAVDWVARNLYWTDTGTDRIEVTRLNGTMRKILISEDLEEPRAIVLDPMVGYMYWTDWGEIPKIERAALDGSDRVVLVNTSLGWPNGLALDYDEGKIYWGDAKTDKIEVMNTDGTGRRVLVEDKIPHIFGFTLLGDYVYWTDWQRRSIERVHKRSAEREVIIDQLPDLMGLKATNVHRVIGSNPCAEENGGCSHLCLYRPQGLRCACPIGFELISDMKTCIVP
In words: Octet BLI. As to the method:
as §1
B6: the binding result was “no binding”.
Still for that read-out and setting: then B7, with “no binding”; and B8, with “no binding”.
Still for that read-out and setting: as for B9, the entry is “no binding”.

A further assay addresses T1, LRP6E3E4_O75581_631-1246. Nature of the assay: Octet BLI, affinity class. As to the method: as §1
Take B1: the Kd was below 0.5 µM.
The same measure, in the same setting: then B6, with below 0.5 µM; and B7, with below 0.5 µM.
Still for that read-out and setting: as for B8, the figure is below 0.5 µM; as for B9, below 0.5 µM.

The next assay concerns the target T2, LRP6e1e2. In words: Octet BLI, affinity class. As to the method:
as §1
Turning to B1, the Kd was below 0.5 µM.
With B2, the Kd was below 0.5 µM.
On the same count and under the same terms, then B3, with below 0.5 µM; and B4, with below 0.5 µM; and B5, with below 0.5 µM.

The target of another assay is T3, LRP6E3E4_O75581_631-1246 (Homo sapiens (Human), UniProt O75581 631-1246).
T3 construct: also called LRP6E3E4 construct used for structural studies
T3 sequence: T1 sequence
Nature of the assay: co-crystal structure (figure legend). The method, then:
Structure of Lrp6E3E4:VHH/Fab complexes were determined by molecular replacement method using Phaser [Phaser crystallographic software. A. J. McCoy, R. W. Grosse-Kunstleve, P. D. Adams, M. D. Winn, L. C. Storoni, and R. J. Read. J Appl Crystallogr 40, 658-674 (2007)] with published structures Lrp6E3E4 [PDB code: 4AOP; Chen S, Bubeck D, MacDonald B T, Liang W X, Mao J H, Malinauskas T, Llorca O, Aricescu A R, Siebold C, He X, Jones E Y. Dev. Cell 21 848-61 (2011)] and a VHH or sdAb [PDB code: 6B20, chain E; Gulati S, Jin H, Masuho I, Orban T, Cai Y, Pardon E, Martemyanov K A, Kiser P D, Stewart P L, Ford C P, Steyaert J, Palczewski K. Nat Commun 91996 (2018)], followed by refinement and validation by MolProbity as implemented in Phenix [PHENIX: a comprehensive Python-based system for macromolecular structure solution. P. D. Adams, P. V. Afonine, G. Bunkoczi, V. B. Chen, I. W. Davis, N. Echols, J. J. Headd, L. W. Hung, G. J. Kapral, R. W. Grosse-Kunstleve, A. J. McCoy, N. W. Moriarty, R. Oeffner, R. J. Read, D. C. Richardson, J. S. Richardson, T. C. […]
Diffraction quality crystals of Lrp6E3E4:VHH36 (concentration=14.0 mg/mL) were obtained by grid-screen optimization in a condition containing 1.6 M ammonium sulfate and 0.1 M Tris pH 8.2. […] Structure of Lrp6E3E4:VHH36 complex was determined at a resolution of 2.70 Å, and refined to Rcryst and Rfree factors of 18.6% and 22.8%, respectively.
Consider B10, for which the binding result is listed as “binds”.

For the next assay, the target named is T1, LRP6E3E4_O75581_631-1246. Nature of the assay: Octet BLI or BIAcore SPR.
B6 returned a Kd below 0.5 µM.
On the same count and under the same terms, then B7, with below 0.5 µM; and B8, with below 0.5 µM.
Still for that read-out and setting: as for B9, the figure is below 0.5 µM.

The target of another assay is T2, LRP6e1e2. In words: Octet BLI or BIAcore SPR.
Molecule B2 displayed a Kd below 0.5 µM.
On the same count and under the same terms, as for B3, the figure is below 0.5 µM; as for B4, below 0.5 µM.
In the case of B5, the Kd is below 0.5 µM.
